# Experimental data taken from US20210115135A1 (ZHEJIANG SHIMAI PHARMACEUTICAL, published 2021).
# Where “and” joins values, the source holds several entries; their conditions need not be identical. Identical values can stand only once.
# Target: T1, recombinant human LAG3 (Sino Biological Inc.) (human, UniProt P18627 23-450)
# T1 construct: Bought recombinant protein; also called CD223; biotinylated recombinant human LAG3
# T1 sequence (looked up): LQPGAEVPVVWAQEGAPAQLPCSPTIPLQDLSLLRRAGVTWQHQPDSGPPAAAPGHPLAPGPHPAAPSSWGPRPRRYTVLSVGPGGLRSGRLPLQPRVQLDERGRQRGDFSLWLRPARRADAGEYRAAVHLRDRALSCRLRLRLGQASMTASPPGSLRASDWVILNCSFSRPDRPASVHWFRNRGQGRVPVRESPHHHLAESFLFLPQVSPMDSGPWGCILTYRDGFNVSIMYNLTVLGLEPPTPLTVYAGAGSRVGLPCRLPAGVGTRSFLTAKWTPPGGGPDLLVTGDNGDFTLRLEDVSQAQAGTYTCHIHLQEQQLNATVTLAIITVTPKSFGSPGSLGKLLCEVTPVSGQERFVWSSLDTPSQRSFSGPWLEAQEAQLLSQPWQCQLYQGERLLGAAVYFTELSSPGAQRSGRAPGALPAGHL
# Test: ELISA, recombinant human LAG3 coated, Fab detected by anti-FLAG-HRP
# Procedure: The hexahistidine-tagged antibodies were expressed in E. coli strain HB2151 and purified from the soluble fraction of periplasm by using the Ni-NTA resin. 7 monoclonal antibodies against human LAG3 were selected by panning a large phage-display library of naïve human antibodies in the format of antigen-binding fragment (Fab). Then ELISA was performed according to standard protocols. Briefly, recombinant human LAG3 (Sino Biological Inc.) was coated on Corning EIA/RIA high-binding 96-well plates (Corning Inc.) at 50 ng per well overnight at 4° C. and blocked with 3% nonfat milk in PBS (pH7.4). Fivefold serially diluted antibodies were added and incubated at room temperature for 2 h. The plates were washed with PBS containing 0.05% Tween 20. Bound antibodies were detected by HRP-conjugated anti-FLAG tag antibody (Sigma-Aldrich). The assay was developed at room temperature with TMB substrate (Sigma-Aldrich) and monitored at 450 nm with a microplate reader.
Binder,EC50,binding result
"DNV3 Fab (Fab, V domains shown, Human Fab from a phage library, hexahistidine-tagged, detected through a FLAG tag, made in E. coli HB2151) VH: EVQLVQSGAEVKKPGASVKVSCKASGYTFTSYGISWVRQAPGQGLEWMGWISAYNGNTNYAQKLQGRVTMTTDTSTSTAYMELRSLRSDDTAVYYCARDSSSWWVDAFDIWGQGTMVTVSS VL: QSVLTQPPSVSAAPGQKVTISCSGSTSNIAINYVSWYQQVPGTVPKLLIYDDDKRPSGIPDRFSGSKSGTSATLDISGLQTGDEAHYYCGVWDNSLLAVLFGGGTSLTVL",6 nM and ≤ 10 nM,–
"DNV3.13 Fab (Fab, V domains shown, Light-chain-shuffled Fab variant of DNV3) VH: EVQLVQSGAEVKKPGASVKVSCKASGYTFTSYGISWVRQAPGQGLEWMGWISAYNGNTNYAQKLQGRVTMTTDTSTSTAYMELRSLRSDDTAVYYCARDSSSWWVDAFDIWGQGTMVTVSS VL: SYVLTQPPSASGTPGQRVTMSCSGRYSNIGGNTVNWYHHLPGTAPTLLIYSNDQRPSGVPDRFSGSKSGTSASLAISGVQSEDEADYYCAAWDDNLNGLVFGTGTKVTVL",–,binds
"DNV3.8 Fab (Fab, V domains shown, Light-chain-shuffled Fab variant of DNV3) VH: EVQLVQSGAEVKKPGASVKVSCKASGYTFTSYGISWVRQAPGQGLEWMGWISAYNGNTNYAQKLQGRVTMTTDTSTSTAYMELRSLRSDDTAVYYCARDSSSWWVDAFDIWGQGTMVTVSS VL: SYELTQPPSVSEAPRQRATISCSGSRSNIGNNAVSWYQRLPGQAPKLLIYYDTFLPSGVSDRFSGSKSGTSASLTISGLQSDDEADYYCAAWDDSLNGVLFGGGTKLTVQ",–,binds
"DNV3.14 Fab (Fab, V domains shown, Light-chain-shuffled Fab variant of DNV3) VH: EVQLVQSGAEVKKPGASVKVSCKASGYTFTSYGISWVRQAPGQGLEWMGWISAYNGNTNYAQKLQGRVTMTTDTSTSTAYMELRSLRSDDTAVYYCARDSSSWWVDAFDIWGQGTMVTVSS VL: PYVLTQPPSVSGAPRQRVTISCSGGSSNIASNAVNWYQQFPGKAPKLLVYYDDLLPSGVSDRFSGSKTGTSASLAISALQSEDEADYFCAAWDDSLNGVLFGGGTKLTVL",–,binds
"DNV3.2 Fab (Fab, V domains shown, Light-chain-shuffled Fab variant of DNV3) VH: EVQLVQSGAEVKKPGASVKVSCKASGYTFTSYGISWVRQAPGQGLEWMGWISAYNGNTNYAQKLQGRVTMTTDTSTSTAYMELRSLRSDDTAVYYCARDSSSWWVDAFDIWGQGTMVTVSS VL: not shown",–,binds
"DNV3.3 Fab (Fab, V domains shown, Light-chain-shuffled Fab variant of DNV3) VH: EVQLVQSGAEVKKPGASVKVSCKASGYTFTSYGISWVRQAPGQGLEWMGWISAYNGNTNYAQKLQGRVTMTTDTSTSTAYMELRSLRSDDTAVYYCARDSSSWWVDAFDIWGQGTMVTVSS VL: QSVLTQPPSASGTPGQRVTISCSGSSSNIGNNAVNWYQQLPGKAPKLLIYYDDLLPSGVSDRFSGSKSGTSASLAISGLRSEDEGDYFCAAWDDSLSGQVLFGGGTKLTVL",–,binds
"DNV3.7 Fab (Fab, V domains shown, Light-chain-shuffled Fab variant of DNV3) VH: EVQLVQSGAEVKKPGASVKVSCKASGYTFTSYGISWVRQAPGQGLEWMGWISAYNGNTNYAQKLQGRVTMTTDTSTSTAYMELRSLRSDDTAVYYCARDSSSWWVDAFDIWGQGTMVTVSS VL: SYELTQPPSVSEAPRQRVTISCSGSSSNIGSNAVSWYQQVPRKAPKLLVYYDDLLPSGVSDRFSGSKSGTSASLAIRGLQSEDEADYYCAAWDDSLNAFVFGTGTKVTVL",–,binds
"DNV3.4 Fab (Fab, V domains shown, Light-chain-shuffled Fab variant of DNV3) VH: EVQLVQSGAEVKKPGASVKVSCKASGYTFTSYGISWVRQAPGQGLEWMGWISAYNGNTNYAQKLQGRVTMTTDTSTSTAYMELRSLRSDDTAVYYCARDSSSWWVDAFDIWGQGTMVTVSS VL: SYVLTQPPSTSAAPGQTVTILCFGGGSNLQSNTVNWYRHVSGSAPKLLIHSDDERASGVSPRLSGSKSGGSASLILRGLQPEDEGDYYCAAWDDRLDAYVFGTGTKVTVL",–,binds
"DNV3.15 Fab (Fab, V domains shown, Light-chain-shuffled Fab variant of DNV3) VH: EVQLVQSGAEVKKPGASVKVSCKASGYTFTSYGISWVRQAPGQGLEWMGWISAYNGNTNYAQKLQGRVTMTTDTSTSTAYMELRSLRSDDTAVYYCARDSSSWWVDAFDIWGQGTMVTVSS VL: LPVLTQPPSASGTPGQRITISCSGSSSNIGSATVNWYQHLPGTAPKLLIYGDNQRPSGVADRFSGSKSGTSASLEIRGLQSEDEADYYCAAWDGSLDGVMFGGGTRVNVL",–,binds
"DNV3.18 Fab (Fab, V domains shown, Light-chain-shuffled Fab variant of DNV3) VH: EVQLVQSGAEVKKPGASVKVSCKASGYTFTSYGISWVRQAPGQGLEWMGWISAYNGNTNYAQKLQGRVTMTTDTSTSTAYMELRSLRSDDTAVYYCARDSSSWWVDAFDIWGQGTMVTVSS VL: SVVTQPPSVSEAPRQRVTISCSGSSSNIGNNAVNWYQQLPGKAPKLLIYYDDLLPSGVSDRFSGSKSGTSASLAISGLQSEDEADYYCAAWDDSLNAVVFGGGTKLTVL",–,binds
"DNV3.1 Fab (Fab, V domains shown) VH: EVQLVQSGAEVKKPGASVKVSCKASGYTFTSYGISWVRQAPGQGLEWMGWISAYNGNTNYAQKLQGRVTMTTDTSTSTAYMELRSLRSDDTAVYYCARDSSSWWVDAFDIWGQGTMVTVSS VL: LPVLTQPPSASGTPGQRVTISCSGSSSNIGGNSVNWYQQLPGTAPKLLIYSDNQRPSGVPDRFSGSKSGTSASLAISGLQSEEEADYYCAAWDDSLNAYVFGPGTKVTVL",–,binds
"DNV3.5 Fab (Fab, V domains shown, Light-chain-shuffled Fab variant of DNV3) VH: EVQLVQSGAEVKKPGASVKVSCKASGYTFTSYGISWVRQAPGQGLEWMGWISAYNGNTNYAQKLQGRVTMTTDTSTSTAYMELRSLRSDDTAVYYCARDSSSWWVDAFDIWGQGTMVTVSS VL: QSVLTQPPSASGTPGQRVTISCSGSTSNIGGNTVNWYQQLPGTAPKLLIYSSNRRPSGVPDRFSGSTSGTSASLAISGLQSEDEADYYCAAWDDSLIAYVFGTGTKVTVL",–,binds
"DNV3.12 Fab (Fab, V domains shown, Light-chain-shuffled Fab variant of DNV3) VH: EVQLVQSGAEVKKPGASVKVSCKASGYTFTSYGISWVRQAPGQGLEWMGWISAYNGNTNYAQKLQGRVTMTTDTSTSTAYMELRSLRSDDTAVYYCARDSSSWWVDAFDIWGQGTMVTVSS VL: SYVLTQPPSASGTPGQRVTISCSGSSSNIGSNIVNWYQHLPGTAPKLLIYGNSQRPSGVSDRFSGSKSGTSASLAISGLQSEDEANYYCAVWDDSLDGHLLFGGGTKLTVL",–,binds
"DNV3.9 Fab (Fab, V domains shown, Light-chain-shuffled Fab variant of DNV3) VH: EVQLVQSGAEVKKPGASVKVSCKASGYTFTSYGISWVRQAPGQGLEWMGWISAYNGNTNYAQKLQGRVTMTTDTSTSTAYMELRSLRSDDTAVYYCARDSSSWWVDAFDIWGQGTMVTVSS VL: LPVLTQPPSVSGAPRQRVTISCSGGSSNIASNAVNWYQQFPGKAPKLLVYYDDLLPSGVSDRFSGSKTGTSASLAISALQSEDEADYFCAAWDDSLNGVLFGGGTKLTVL",–,binds
"DNV3.16 Fab (Fab, V domains shown, Light-chain-shuffled Fab variant of DNV3) VH: EVQLVQSGAEVKKPGASVKVSCKASGYTFTSYGISWVRQAPGQGLEWMGWISAYNGNTNYAQKLQGRVTMTTDTSTSTAYMELRSLRSDDTAVYYCARDSSSWWVDAFDIWGQGTMVTVSS VL: SYVLTQPPSASGTPGQRVTISCSGGSSNIASNAVNWYQQFPGKAPKLLVYYDDLLPSGVSDRFSGSKTGTSASLAISALQSEDEADYFCAAWDDSLNGVLFGGGTKLTVL",–,binds
"DNV1 Fab (Fab, V domains shown, Human Fab from a phage library, hexahistidine-tagged, detected through a FLAG tag, made in E. coli HB2151) VH: QVQLQQWGAGLLKPSETLSLTCAVYGGSFSGYYWSWIRQPPGKGLEWIGEINHSGSTNYNPSLKSRVTISVDTSKNQFSLKLSSVTAADTAVYYCARITPRFDAFDIWGQGTMVTVSS VL: QSVLTQPPSVSAAPGRKVTISCSGSSSNIGTNSVSWYQQFPGTAPKLLIYDNNKRLSRIPDRFSGSKSGTSASLAISGLQSEDEADYYCAAWDDSLTGYVFGTGTKVTVL",≤ 10 nM,–
